The values that follow are results of earlier work, collected in US20070032640A1, “Cytokine receptor” (priority 2001, published 2007).

Series [1] has as its target T1, gp130 (Homo sapiens, UniProt P40189).
T1 sequence (P40189 23-918): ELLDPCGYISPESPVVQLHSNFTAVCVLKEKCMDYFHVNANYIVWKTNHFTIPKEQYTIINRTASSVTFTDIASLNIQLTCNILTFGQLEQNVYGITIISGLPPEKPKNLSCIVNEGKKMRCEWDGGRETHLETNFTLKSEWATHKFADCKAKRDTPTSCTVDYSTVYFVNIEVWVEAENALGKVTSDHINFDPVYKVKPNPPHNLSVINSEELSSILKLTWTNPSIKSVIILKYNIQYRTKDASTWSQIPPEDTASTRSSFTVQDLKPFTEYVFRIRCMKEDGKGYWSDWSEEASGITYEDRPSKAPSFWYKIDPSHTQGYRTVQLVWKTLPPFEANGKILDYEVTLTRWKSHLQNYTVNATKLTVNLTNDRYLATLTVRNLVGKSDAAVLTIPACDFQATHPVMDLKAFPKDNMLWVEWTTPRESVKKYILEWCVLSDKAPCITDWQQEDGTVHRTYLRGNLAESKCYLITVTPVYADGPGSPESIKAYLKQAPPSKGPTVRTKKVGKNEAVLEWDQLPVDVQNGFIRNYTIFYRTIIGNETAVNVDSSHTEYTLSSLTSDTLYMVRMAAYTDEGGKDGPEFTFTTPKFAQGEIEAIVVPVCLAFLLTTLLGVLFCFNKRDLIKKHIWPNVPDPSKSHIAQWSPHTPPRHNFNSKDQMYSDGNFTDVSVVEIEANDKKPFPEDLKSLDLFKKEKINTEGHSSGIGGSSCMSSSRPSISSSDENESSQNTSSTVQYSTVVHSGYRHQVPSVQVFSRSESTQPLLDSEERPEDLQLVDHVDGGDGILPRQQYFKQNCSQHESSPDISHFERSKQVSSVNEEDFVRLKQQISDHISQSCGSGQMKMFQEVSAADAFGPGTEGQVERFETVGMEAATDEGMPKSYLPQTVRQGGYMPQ
Further details: endogenous in cells; host or cells: human myeloma U266 cells. As to conditions: human myeloma U266 cells, high-affinity binding; read-out: affinity of IL-6/IL-6R complex for gp130; cited from earlier work.

The target in series [2] is T1, gp130. As to conditions: IL-6R N-D mutant; cited from earlier work.
Another series relates to IL-6. The note with it: IL-6 binding of IL-6R mutant, relative to wild type; cited from earlier work.

With “IL-6/IL-6R complex: complex of IL-6 with the ligand binding α-chain receptor IL-6R”, the Kd with gp130 [1] is about 0.01 nM.

B1: N211: IL-6R N-D mutant at N211 (protein, UniProt P08887 20-468, looked up, variant N211D)
Interleukin-6 receptor …: LAPRRCPAQEVARGVLTSLPGDSVTLTCPGVEPEDNATVHWVLRKPAAGSHPSRWAGMGRRLLLRSVQLHDSGNYSCYRAGRPAGTVHLLVDVPPEEPQLSCFRKSPLSNVVCEWGPRSTPSLTTKAVLLVRKFQNSPAEDFQEPCQYSQESQKFSCQLAVPEGDSSFYIVSMCVASSVGSKFSKTQTFQGCGILQPDPPANITVTAVARDPRWLSVTWQDPHSWNSSFYRLRFELRYRAERSKTFTTWMVKDLQHHCVIHDAWSGLRHVVQLRAQEEFGQGEWSEWSPEAMGTPWTESRSPPAENEVSTPMQALTTNKDDDNILFRDSANATSLPVQDSSSVPLPTFLVAGGSLAFGTLLCIAIVLRFKKTWKLRALKEGKTSMHPPYSLGQLVPERPRPTPVLVPLISPPVSPSSLGSDNTSSHNRPDARDPRSPYDISNTDYFFPR
Regarding B1, in the series with gp130 [2], the “binding to gp130” value was “N-D mutant, <10% binding to gp130”. For the same molecule, the Binding in the series on IL-6 is on record as 75%.
